Results published in article doi:10.1101/2025.09.11.675621, “Effects of Nanopore Confinement on the Conformational, Dynamical, and Self-Assembly Properties of an FG-Repeat Peptide” (bioRxiv, 2025).
Read-outs that look alike come from different tables or passages of the source. Primed or numbered codes have the meaning given here. No end group written: not given here. *: point of attachment. MBPA″ = 4-maleimidobutylphosphonic acid, conjugated to the N-terminal cysteine, O=C1CC(*)C(=O)N1CCCCP(=O)(O)O; MBPA = 4-maleimidobutylphosphonic acid, O=C1CC(*)C(=O)N1CCCCP(=O)(O)O

B1: MBPA-C-FG30 (peptide)
chain: C(MBPA)FGNNKLTTFGSSTTSAPSFGTTSGGLFGNK-NH2
modifications: also: uniform 15N,13C labels at L6, S11, A16, F19, T22, G28 (LSAFTG) or G2, G10, G20, G29 (4G)

Columns and labels:
[1] = 4° C; thermodynamic, from 7.1 mM (23 mg/ml) solutions in Bis-Tris buffer pH 6.5 (printed 0.2 mM), incubated four days with brief bath sonication once per day; centrifuged 16,000 x g 15 min, 0.1 μm filter; absorbance at 260 nm, triplicate
Method: After incubation, solutions were centrifuged at 16,000 × g for 15 min, yielding visible pellets at each temperature. Supernatants were then passed through 0.1 μm centrifugal filters (Millipore Ultrafree, 0.5 ml volume) and diluted with H2O by factors of four. Peptide concentrations were determined from absorbance measurements at 260 nm, performed in triplicate, using an extinction coefficient of 1070 M^−1 cm^−1 that was determined from the absorbance of the initial solutions.

[2] = Aggregation / fibril formation in free solution (TEM, solubility); type: physicochemical; conditions: 10 mM peptide, Bis-Tris buffer pH 6.5, after six days of incubation at 4° C, 24° C or 37° C
Method: Aggregated MBPA-C-FG30 for transmission electron microscopy (TEM) was prepared by dissolving 2.0 mg of purified and lyophilized MBPA-C-FG30-LSAFTG in 60 μl of 0.2 M Bis-Tris buffer (pH 6.5) to produce a 10 mM peptide solution. The solution was evenly divided into three 20 μl aliquots, each transferred into a 0.2 ml tube. The three tubes were incubated quiescently for 6 days at temperatures of 4° C, 24° C, and 37° C. After incubation, each sample was briefly vortexed, and 3 μl was withdrawn for subsequent TEM imaging, as described below.
Transmission electron microscope (TEM) images were acquired with an FEI Morgagni microscope, operating at 80 kV, and a side-mounted Advantage HR camera (Advanced Microscopy Techniques). TEM grids were lacey carbon on 300 mesh copper (Electron Microscopy Sciences), upon which carbon films were deposited by flotation. Solutions containing aggregated MBPA-C-FG30 were diluted 100-fold in H2O, then adsorbed in 10 μl aliquots to glow-discharged grids for 90 s. Grids were blotted, rinsed with H2O, blotted, rinsed again, blotted, and stained with 2% w/v uranyl acetate for 15 s before final blotting and drying in air.
Figure 5: TEM images of aggregated MBPA-C-FG30, negatively stained with uranyl acetate. […]

[3] = equilibrium solubility (centrifugation, filtration, absorbance of the supernatant at 260 nm); 7.1 mM solution in Bis-Tris buffer pH 6.5, 4 days at 4 °C with brief daily bath sonication; 16,000 x g 15 min, 0.1 um filter; monomer left over aggregates; conditions: other: equilibrium solubility (centrifugation, filtration, absorbance of the supernatant at 260 nm)
[4] = equilibrium solubility (centrifugation, filtration, absorbance of the supernatant at 260 nm); 7.1 mM solution in Bis-Tris buffer pH 6.5, 4 days at 40 °C with brief daily bath sonication; 16,000 x g 15 min, 0.1 um filter; monomer left over aggregates; conditions: other: equilibrium solubility (centrifugation, filtration, absorbance of the supernatant at 260 nm)
[5] = equilibrium solubility (centrifugation, filtration, absorbance of the supernatant at 260 nm); 7.1 mM solution in Bis-Tris buffer pH 6.5, 4 days at 24 °C with brief daily bath sonication; 16,000 x g 15 min, 0.1 um filter; monomer left over aggregates; conditions: other: equilibrium solubility (centrifugation, filtration, absorbance of the supernatant at 260 nm)

Row | Molecule | equilibrium solubility [1] [mM] | morphology of aggregated material (negative-stain TEM) [2] | equilibrium solubility [3] [mM] | equilibrium solubility [4] [mM] | equilibrium solubility [5] [mM]
1 | MBPA-C-FG30: C-FG30 with 4-maleimidobutylphosphonic acid conjugated to the N-terminal cysteine (C(MBPA″)FGNNKLTTFGSSTTSAPSFGTTSGGLFGNK-NH2; also: uniform 15N,13C labels at L6, S11, A16, F19, T22, G28 or at G2, G10, G20, G29 (FG30 numbering)) | 4.5 ± 0.2 | straight, unbranched assemblies | – | – | –
2 | B1 | – | – | 4.5 ± 0.2 | 1.92 ± 0.08 | 1.60 ± 0.04
